In patent publication US20260022175A1 (Chugai, published 2026):
Changes are numbered by the printed parent chain. Numbers in names are those of the source.

T1: human FcγRIIb extracellular domain with C-terminal His-tag (human, UniProt P31994 43-217)
T1 construct: extracellular domain; also called hFcγR IIb
T1 sequence (looked up): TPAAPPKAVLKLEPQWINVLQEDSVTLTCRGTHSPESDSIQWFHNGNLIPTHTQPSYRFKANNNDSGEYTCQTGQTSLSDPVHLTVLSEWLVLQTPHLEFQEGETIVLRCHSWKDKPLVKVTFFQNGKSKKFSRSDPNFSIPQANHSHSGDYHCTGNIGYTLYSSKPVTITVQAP

T2: human FcγRIIa H allotype extracellular domain with C-terminal His-tag (human, UniProt P12318 34-217)
T2 construct: extracellular domain; also called hFcγR IIa H
T2 sequence (looked up): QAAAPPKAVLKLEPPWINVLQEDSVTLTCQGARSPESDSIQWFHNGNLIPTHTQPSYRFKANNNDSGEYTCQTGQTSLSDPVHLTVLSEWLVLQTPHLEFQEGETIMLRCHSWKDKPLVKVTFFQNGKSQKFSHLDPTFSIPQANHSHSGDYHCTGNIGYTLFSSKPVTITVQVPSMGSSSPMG

T3: human FcγRIIa R allotype extracellular domain with C-terminal His-tag (human, UniProt P12318 34-217)
T3 construct: extracellular domain; also called hFcγR IIa R
T3 sequence (looked up): T2 sequence (looked up) with H134R

B1: 04H1637-G1m/04L1610-lam1 (antibody, human IgG1, lambda)
heavy: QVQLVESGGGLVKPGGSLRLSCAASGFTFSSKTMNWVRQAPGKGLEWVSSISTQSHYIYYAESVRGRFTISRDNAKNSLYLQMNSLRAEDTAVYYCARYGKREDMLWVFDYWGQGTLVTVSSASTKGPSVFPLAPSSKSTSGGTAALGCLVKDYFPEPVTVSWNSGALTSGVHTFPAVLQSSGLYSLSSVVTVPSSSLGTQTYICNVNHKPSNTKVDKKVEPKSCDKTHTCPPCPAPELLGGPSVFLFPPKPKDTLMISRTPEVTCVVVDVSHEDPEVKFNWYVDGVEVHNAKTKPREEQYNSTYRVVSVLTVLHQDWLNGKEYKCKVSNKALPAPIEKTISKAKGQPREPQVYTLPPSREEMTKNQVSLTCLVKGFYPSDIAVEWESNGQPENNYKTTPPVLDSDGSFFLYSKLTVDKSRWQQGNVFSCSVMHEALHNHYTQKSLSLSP
light: QSALTQPPSASGSPGQSVTISCEGPSTGVGDYNWVHWYQQHPGKAPKLMIYFTSKKPSGVPDRFSGSKSGNTASLTVSGLQAEDEADYYCQTYAAPLGPMFGGGTKLTVLGQPKAAPSVTLFPPSSEELQANKATLVCLISDFYPGAVTVAWKADSSPVKAGVETTTPSKQSNNKYAASSYLSLTPEQWKSHRSYSCQVTHEGSTVEKTVAPTECS
B2: 04H1654-KT462/04L1610-lam1//04H1656-HT445/04L1610-lam1 (antibody, human IgG1, lambda)
heavy 1: QVQLVESGGGVVQPGGSLRLSCAASGFTFSSKTMNWVRQAPGKGLEWVSSISTQSHYIYYARSVRGRFTISRDNAKNSLYLQMNSLRAEDTAVYYCARYGKREDMLWVFDYWGQGTLVTVSSASTKGPSVFPLAPSSKSTSGGTAALGCLVKDYFPEPVTVSWNSGALTSGVHTFPAVLQSSGLYSLSSVVTVPSSSLGTQTYICNVNHKPSNTKVDKRVEPKSCDKTHTCPPCPAPEFQWGPMVFLFPPKPKDVLMISRTPEVTCVVVDVSDEEPEVKFNWYVDGVEVHNAKTKPREEQYNATYRVVSVLPVLHQDWLNGKEYKCKVSNDALPAPIEKTISKAKGQPREPQVYTLPPSRKEMTKNQVSLTCLVKGFYPSDIAVEWESNGQPENNYKTTPPVLDSDGSFFLYSKLTVDKSRWQQGNVFSCSVMHEALHNHYTQKSLSLSP
heavy 2: QVQLVESGGGVVQPGGSLRLSCAASGFTFSSKTMNWVRQAPGKGLEWVSSISTQSHYIYYAESVRGRFTISRDNAKNSLYLQMNSLRAEDTAVYYCARYGAREDMLWVFDYWGQGTLVTVSSASTKGPSVFPLAPSSKSTSGGTAALGCLVKDYFPEPVTVSWNSGALTSGVHTFPAVLQSSGLYSLSSVVTVPSSSLGTQTYICNVNHKPSNTKVDKRVEPKSCDKTHTCPPCPAPELLAGPSVFLFPPKPKDVLMISRTPEVTCVVVDVSHEEPEVKFNWYVDGVEVHNAKTKPREEQYNATYRVVSVLPVLHQDWLNGKEYKCKVSNDALPKPDEETISKAKGQPREPQVYTLPPSREEMTKNQVSLTCLVKGFYPSDIAVEWESNGQPENNYKTTPPVLDSDGSFFLYSKLTVDKSRWQQGNVFSCSVMHEALHNHYTQESLSLSP
light: B1 light
notes: Heterodimerized antibody, IGHG1*03 constant region, E356K / K439E
B3: 04H1654-KT473/04L1610-lam1//04H1656-HT482/04L1610-lam1 (antibody)
heavy 1: B2 heavy 1 with N439A, Y441T, Q443R, S445E
heavy 2: B2 heavy 2 with N439A, Y441T, Q443R, S445E
light: B1 light
notes: Heterodimerized antibody with N434A/Y436T/Q438R/S440E; also called SW1610-ART6+ACT1
B4: 04H1654-KT461/04L1610-lam1//04H1656-HT443/04L1610-lam1 (antibody, human IgG1, lambda)
heavy 1: B2 heavy 1 with I337E
heavy 2: B2 heavy 2 with K335A, D337E
light: B1 light
notes: Heterodimerized antibody
B5: 04H1654-KT481/04L1610-lam1//04H1656-HT498/04L1610-lam1 (antibody)
heavy 1: B2 heavy 1 with I337E, N439A, Y441T, Q443R, S445E
heavy 2: B2 heavy 2 with K335A, D337E, N439A, Y441T, Q443R, S445E
light: B1 light
notes: Heterodimerized antibody with N434A/Y436T/Q438R/S440E
B6: 04H1654-KT462/04L1612-lam1//04H1656-HT445/04L1612-lam1 (antibody, human IgG1, lambda)
heavy 1: B2 heavy 1
heavy 2: B2 heavy 2
light: B1 light with N33T, W34Y
notes: Heterodimerized antibody
B7: 04H1654-KT473/04L1612-lam1//04H1656-HT482/04L1612-lam1 (antibody)
heavy 1: B2 heavy 1 with N439A, Y441T, Q443R, S445E
heavy 2: B2 heavy 2 with N439A, Y441T, Q443R, S445E
light: B1 light with N33T, W34Y
notes: as for B5
B8: 04H1654-KT461/04L1612-lam1//04H1656-HT443/04L1612-lam1 (antibody, human IgG1, lambda)
heavy 1: B2 heavy 1 with I337E
heavy 2: B2 heavy 2 with K335A, D337E
light: B1 light with N33T, W34Y
notes: Heterodimerized antibody

How the values were obtained:
[1] = target: T1, human FcγRIIb extracellular domain with …; experiment: SPR; binding amount divided by that of 04H1637-G1m/04L1610-lam1
[2] = target: T4, human FcγRIIIa V allotype extracellular domain with C-terminal His-tag (human, UniProt P08637 17-208); experiment: SPR; KD of 04H1637-G1m/04L1610-lam1 divided by KD of variant;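 further: biacore T200 SPR at 25 °C, antibodies captured on anti-Fab-lambda SA chip with receptor as analyte, running buffer pH 7.4 for FcγRs and pH 6.0 for FcRn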
T4 construct: extracellular domain; also called hFcγR IIIa V
Method: (§1) The interaction between the generated antibodies and human FcγRs was analyzed by the following method using Biacore T200. 50 mM Na-Phosphate, 150 mM NaCl, 0.05% Tween20 (pH 7.4) was used as the running buffer, and the assay was performed at 25° C. For the sensor chips, Series S SA (GE Healthcare) chips onto which CaptureSelect Human Fab-lambda Kinetics Biotin Conjugate (Thermo Fisher Scientific) was immobilized were used. The antibodies of interest were captured onto these chips and each FcγR diluted in the running buffer was allowed to interact with them. Chips were regenerated with 10 mM Glycine-HCl (pH 1.5) and 25 mM NaOH, and assay was performed by repeatedly capturing antibodies. The dissociation constants KD (mol/L) for FcγRs of each antibody were calculated using Biacore T200 Evaluation Software 2.0, using the 1:1 Langmuir binding model for FcγRIa and FcγRIIIa and the steady state affinity model for FcγRIIa. For FcγRIIb, the binding amount of FcγRIIb per unit amount of antibody was calculated by correcting the binding amount of FcγRIIb obtained from the sensorgram obtained by the measurement with the amount of antibody captured onto the chip surface.
(§2) The interaction between the generated antibodies and human FcRn was analyzed by the following method using Biacore T200. 50 mM Na-Phosphate, 150 mM NaCl, 0.05% Tween20 (pH 6.0) was used as the running buffer, and the assay was performed at 25° C. For the sensor chip, Series S SA (GE Healthcare) chips onto which CaptureSelect Human Fab-lambda Kinetics Biotin Conjugate (Thermo Fisher Scientific) was immobilized were used. The antibodies of interest were captured onto these chips and FcRn diluted in the running buffer was allowed to interact with them. Chips were regenerated with 10 mM Glycine-HCl (pH 1.5) and 25 mM NaOH, and assay was performed by repeatedly capturing antibodies. The dissociation constant for FcRn of each antibody was calculated using the steady state model, using Biacore T200 Evaluation Software 2.0.

human FcRn [3] = target: T5, human FcRn (human, UniProt P55899 24-290; P61769 21-119); experiment: as above
T5 construct: Prepared by the method of WO 2010/107110; also called hFcRn
Method: as §1, §2

[4] = target: T6, human FcγRIa extracellular domain with C-terminal His-tag (human, UniProt P12314 16-292); experiment: as above
T6 construct: extracellular domain; also called hFcγR Ia; hFcγRIa
Method: as §1, §2

[5] = target: T7, human FcγRIIIa F allotype extracellular domain with C-terminal His-tag (human, UniProt P08637 17-208); experiment: as above
T7 construct: extracellular domain; also called hFcγR IIIa F
Method: as §1, §2

[6] = target: T2, human FcγRIIa H allotype extracellular …; experiment: as above
Method: as §1, §2

[7] = target: T3, human FcγRIIa R allotype extracellular …; experiment: as above
Method: as §1, §2

[8] = target: T1, human FcγRIIb extracellular domain with …; experiment: SPR; FcγRIIb at 1000 nM, bound amount per unit captured Ab
Method: as §1

[9] = target: T4, human FcγRIIIa V allotype extracellular …; experiment: SPR Biacore T200, Ab captured via Fab-lambda, pH 7.4, 25C;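 further: antibodies captured on a streptavidin chip carrying biotinylated anti-Fab-lambda, with each FcγR injected as analyte in phosphate buffer. KD fitted by 1:1 Langmuir or steady-state model depending on receptor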
Method: as §1

[10] = target: T6, human FcγRIa extracellular domain with …; experiment: as above
Method: as §1

[11] = target: T7, human FcγRIIIa F allotype extracellular …; experiment: as above
Method: as §1

[12] = target: T2, human FcγRIIa H allotype extracellular …; experiment: as above
Method: as §1

[13] = target: T3, human FcγRIIa R allotype extracellular …; experiment: as above
Method: as §1

human FcRn [14] = target: T5, human FcRn; experiment: SPR Biacore T200, Ab captured via Fab-lambda, pH 6.0, 25C, steady state
Method: as §2

T4 sequence (P08637 17-208 F176V): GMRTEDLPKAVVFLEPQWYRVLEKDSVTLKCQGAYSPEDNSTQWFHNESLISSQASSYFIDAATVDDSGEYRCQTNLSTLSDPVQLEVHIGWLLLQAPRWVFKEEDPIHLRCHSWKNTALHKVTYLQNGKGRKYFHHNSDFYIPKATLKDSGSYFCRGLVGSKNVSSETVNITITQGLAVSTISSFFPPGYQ
T7 sequence (P08637 17-208): as the sequence (P08637 17-208 F176V) above, with V160F counted along it
T6 sequence (P12314 16-292): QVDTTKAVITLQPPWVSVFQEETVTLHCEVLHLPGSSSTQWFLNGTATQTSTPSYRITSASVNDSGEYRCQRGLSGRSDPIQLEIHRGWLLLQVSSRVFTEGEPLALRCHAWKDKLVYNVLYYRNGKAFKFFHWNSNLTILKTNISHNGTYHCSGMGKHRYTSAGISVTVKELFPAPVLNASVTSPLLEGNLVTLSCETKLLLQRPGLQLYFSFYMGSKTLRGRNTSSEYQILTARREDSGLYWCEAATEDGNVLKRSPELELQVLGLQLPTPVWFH
T5 sequence (P55899 24-290 limits assumed, chain 1 of 2): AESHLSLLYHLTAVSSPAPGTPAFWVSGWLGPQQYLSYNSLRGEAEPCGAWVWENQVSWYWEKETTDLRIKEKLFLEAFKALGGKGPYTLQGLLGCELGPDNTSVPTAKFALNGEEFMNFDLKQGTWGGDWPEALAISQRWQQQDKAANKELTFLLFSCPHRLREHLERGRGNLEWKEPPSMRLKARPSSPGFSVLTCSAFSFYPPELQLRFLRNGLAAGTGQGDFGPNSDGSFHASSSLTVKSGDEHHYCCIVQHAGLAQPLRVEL
T5 sequence (P61769 21-119 limits assumed, chain 2 of 2): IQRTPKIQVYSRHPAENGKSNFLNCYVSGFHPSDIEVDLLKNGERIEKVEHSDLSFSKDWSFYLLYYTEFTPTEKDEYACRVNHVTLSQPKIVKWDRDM

Binder | Relative binding amount [1] | Relative value to KD between G1m and hFcγRs [2] | Relative value to KD between G1m and hFcRn (human FcRn [3]) | Relative value to KD between G1m and hFcγRs [4] | Relative value to KD between G1m and hFcγRs [5] | Relative value to KD between G1m and hFcγRs [6] | Relative value to KD between G1m and hFcγRs [7] | Binding amount [8] | Kd [9] [nM] | Kd [10] [nM] | Kd [11] [nM] | Kd [12] [nM] | Kd [13] [nM] | Kd (human FcRn [14]) [nM]
B1 | 1 | 1 | 1 | 1 | 1 | 1 | 1 | 0.008 | 240 | 0.049 | 1400 | 1500 | 2000 | 1300
B2 | 3.1 | 110 | 0.9 | 1.6 | 415 | 13.9 | 13 | 0.025 | 2.2 | 0.03 | 3.3 | 110 | 160 | 1500
B3 | 3.2 | 115 | 2.3 | 1.1 | 363 | 18 | 13.9 | 0.026 | 2.1 | 0.046 | 3.8 | 81 | 150 | 580
B4 | 3.1 | 156 | 0.9 | 1.5 | 526 | 7.3 | 8.4 | 0.025 | 1.5 | 0.032 | 2.6 | 200 | 240 | 1500
B5 | 2.7 | 152 | 2.3 | 1.5 | 495 | 6.5 | 7.7 | 0.022 | 1.6 | 0.033 | 2.8 | 230 | 260 | 570
B6 | 3.4 | 106 | 0.8 | 1.2 | 408 | 16.1 | 14.2 | 0.028 | 2.3 | 0.041 | 3.4 | 91 | 140 | 1600
B7 | 3.2 | 110 | 2.1 | 1 | 355 | 16.2 | 13.8 | 0.026 | 2.2 | 0.048 | 3.9 | 91 | 150 | 620
B8 | 3.1 | 159 | 0.8 | 1.3 | 537 | 7.1 | 8.2 | 0.025 | 1.5 | 0.039 | 2.6 | 210 | 250 | 1600
